Measured values as given in publication PMC7570020, “The PIFs Redundantly Control Plant Defense Response against Botrytis cinerea in Arabidopsis”.

Legend:
GST-PIF4 bHLH [1] = biological target: T1, GST-PIF4 bHLH (Arabidopsis thaliana, UniProt Q8W2F3 257-306); assay: EMSA; Chemiluminescent EMSA Kit (Beyotime), manufacturer's protocol; buffer, salt, pH and temperature not stated; settings: protein: recombinant; tags: N-terminal GST (pGEX); chain copies: 2; label: 5' biotin; blunt
T1 chain: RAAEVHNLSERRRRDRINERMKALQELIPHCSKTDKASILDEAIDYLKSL

GST-PIF5 [2] = biological target: T2, GST-PIF5 (Arabidopsis thaliana, UniProt Q84LH8 1-444); assay: as above; settings: protein: recombinant; tags: N-terminal GST (pGEX); chain copies: 2; label: 5' biotin; blunt
T2 sequence: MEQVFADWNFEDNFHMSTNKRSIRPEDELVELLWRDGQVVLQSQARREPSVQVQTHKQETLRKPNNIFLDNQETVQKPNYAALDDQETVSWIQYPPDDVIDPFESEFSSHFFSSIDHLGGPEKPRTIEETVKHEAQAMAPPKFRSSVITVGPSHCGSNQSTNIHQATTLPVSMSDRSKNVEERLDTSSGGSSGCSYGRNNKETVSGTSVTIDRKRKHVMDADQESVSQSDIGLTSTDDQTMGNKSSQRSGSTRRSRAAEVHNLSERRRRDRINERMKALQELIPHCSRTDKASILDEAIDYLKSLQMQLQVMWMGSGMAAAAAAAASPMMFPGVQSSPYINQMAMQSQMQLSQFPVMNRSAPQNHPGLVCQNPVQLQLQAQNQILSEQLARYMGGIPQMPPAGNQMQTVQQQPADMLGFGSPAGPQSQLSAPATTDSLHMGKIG

GST-PIF4 bHLH [3] = biological target: T1, GST-PIF4 bHLH; assay: competition; increasing unlabeled competitor against labeled N1; Chemiluminescent EMSA Kit (Beyotime), manufacturer's protocol; buffer, salt, pH and temperature not stated; settings: protein: recombinant; tags: N-terminal GST (pGEX); chain copies: 2; label: none; blunt
GST-PIF5 [4] = biological target: T2, GST-PIF5; assay: as above; settings: protein: recombinant; tags: N-terminal GST (pGEX); chain copies: 2; label: none; blunt

B1: ERF1 G-box probe (dsDNA)
DNA 1: GAGCCAAAAACTTTGAACACGTGCGGGATATCAAATAATCA
DNA 2: TGATTATTTGATATCCCGCACGTGTTCAAAGTTTTTGGCTC
- binding result (GST-PIF4 bHLH [1]): binds
- binding result (GST-PIF5 [2]): binds

B2: ERF1 competitor (dsDNA)
DNA 1: GAGCCAAAAACTTTGAACACGTGCGGGATATCAAATAATCA
DNA 2: TGATTATTTGATATCCCGCACGTGTTCAAAGTTTTTGGCTC
- binding result (GST-PIF4 bHLH [3]): binds
- binding result (GST-PIF5 [4]): binds
